These results are taken from US20230106247A1 (L AND L BIO CO LTD NINGBO CHINA, published 2023).

Test [1] deals with human Sirpα-V2-his (human). Put plainly: ELISA. As for the experimental part: (§1) Different antigens (recombinant proteins) such as the human Sirpα-V1-hFc, Sirpα-V1-his, Sirpα-V2-his, Sirpβ-his, Sirpγ-his, monkey Sirpα-his (cynoSirpα-his) or NOD-mSirpα-his described in Example 1 were diluted with a PBS buffer at pH7.4 to concentrations of 1 μg/mL, 2 μg/mL or 5 μg/mL, added into a 96-well ELISA plate (Corning, CLS3590-100EA) at a volume of 50 μL/well, and placed in an incubator at 37° C. for 2 hours. After the liquid was discarded, the wells were added with a blocking solution of 5% skimmed milk (skimmed milk powder available from Bright Dairy) diluted with PBS at 230 μL/well, and incubated in an incubator at 37° C. for 3 hours, or placed overnight at 4° C. (for 16-18 hours) for blocking. The blocking solution was discarded, and the plate was washed with a PBST buffer (pH7.4 PBS containing 0.05% Tween-20) for 5 times, then added with 50 μL/well of the supernatant (containing a detection antibody) or 10 μg/mL of the starting 5-fold gradient dilution of the antibody to be tested, and incubated at 37° C. for 1 hour. […] The plated was washed with PBST for 5 times, then added with 50 μL/well of TMB chromogenic substrate (KPL, Cat #: 52-00-03), incubated at room temperature for 10-15 min, added with 50 μL/well of 1 M H₂SO₄ to stop the reaction, and read by a […] Go microplate reader (ThermoFisher, Cat #: 51119200) for the absorbance value at 450 nm, and then a clone with high binding activity was selected or a EC₅₀ value was calculated according to the OD value.
Chain of human Sirpα-V2-his (human) (chain, as listed by the source): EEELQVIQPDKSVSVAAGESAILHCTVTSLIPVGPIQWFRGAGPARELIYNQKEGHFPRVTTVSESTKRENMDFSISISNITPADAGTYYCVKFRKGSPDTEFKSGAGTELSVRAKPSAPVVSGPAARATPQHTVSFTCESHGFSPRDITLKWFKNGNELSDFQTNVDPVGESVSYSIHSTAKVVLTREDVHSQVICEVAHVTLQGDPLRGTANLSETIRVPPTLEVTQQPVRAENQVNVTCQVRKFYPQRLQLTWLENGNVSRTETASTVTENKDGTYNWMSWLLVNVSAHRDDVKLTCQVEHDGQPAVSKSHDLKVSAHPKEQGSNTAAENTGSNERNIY

Test [2] concerns the target T1, Cyno Sirpα L932 (cynomolgus).
T1 chain: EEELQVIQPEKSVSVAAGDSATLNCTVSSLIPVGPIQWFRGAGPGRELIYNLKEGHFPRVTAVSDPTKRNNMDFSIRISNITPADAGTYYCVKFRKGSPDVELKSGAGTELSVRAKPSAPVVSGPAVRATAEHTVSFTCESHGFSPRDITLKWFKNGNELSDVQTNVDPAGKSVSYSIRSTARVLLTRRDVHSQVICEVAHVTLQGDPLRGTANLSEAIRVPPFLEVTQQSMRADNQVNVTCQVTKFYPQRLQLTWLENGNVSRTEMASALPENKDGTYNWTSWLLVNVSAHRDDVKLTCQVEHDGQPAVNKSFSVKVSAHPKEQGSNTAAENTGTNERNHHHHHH
Description: ELISA. As for the experimental part:
as §1
(An ELISA detects its analyte on a solid surface through an enzyme-linked reagent.)

Test [3] has as its target T2, human Sirpα-V1-his (human, UniProt P78324 31-373).
T2 construct: range 31-373; Bought (Sino Biological 11612-H08H) or expressed in-house; also called hSirpα-V1; hSirpα-V1-his
Description: ELISA. As for the experimental part: as §1

The target in test [4] is T3, Cyno Sirpα L936 (cynomolgus).
T3 construct: also called RB3-3; Cyno Sirpα polymorphism 3 (L936)
T3 chain: T1 chain with S28T, N51H, L52Q, A62S, D65E, P66S, R77H, L103V, V163F, L185V
Description: ELISA. As for the experimental part: as §1

Test [5] deals with T4, Cyno Sirpα L939 (cynomolgus, limits assumed).
T4 construct: also called RB6-2; Cyno Sirpα polymorphism 6 (L939)
T4 chain: T1 chain with D19E, V27A, S28T, A42V, N51S, L52Q, A62P, V163F, L185V
Put plainly: ELISA. As for the experimental part:
as §1

The target of test [6] is T5, Cyno Sirpα L933 (cynomolgus).
T5 construct: extracellular domain; also called Cyno Sirpα polymorphism 2 (L933)
Description: ELISA. As for the experimental part: as §1

The target of test [7] is T2, human Sirpα-V1-his. Put plainly: blocking ELISA, competitor CD47-hFc. As for the experimental part:
The recombinant proteins such as human Sirpα-V1-hFc/Sirpα-V1-his were diluted to concentrations of 5 μg/mL or 2 μg/mL respectively with a PBS buffer at pH 7.4, and then added into a 96-well ELISA plate (Corning, CLS3590-100EA) at a volume of 50 μL/well, and placed in an incubator at 37° C. for 2 hours. After the liquid was discarded, the wells were added with a blocking solution of 5% skimmed milk (skimmed milk powder available from Bright Dairy) diluted with PBS at 230 μL/well, and incubated in an incubator at 37° C. for 3 hours, or placed overnight at 4° C. (for 16-18 hours) for blocking. […] The plate was washed for 5 times, added with 50 μL/well of streptavidin-HRP (GenScript, M00091) or anti-his-HRP secondary antibody (GenScript, A00612) diluted at 1:1000, incubated at 37° C. for 1 hour, and then washed with PBST for 5 times. Each well was added with 50 μL of TMB (Surmodic, Cat #: TTMB-1000-01) for color development, and added with 50 μL/well of 1 M H₂SO₄ to stop the reaction. The readings on a microplate reader (MultiskanGO Thermo, Model 51119200) were subjected to data analysis by GraphPad prism 5.

Numbering of substitutions follows the chain as printed.

B1: humanized antibody mab14-h16 (antibody, human IgG4 S228P, kappa, V domains shown)
VH: QVQLVQSGAEVKKPGASVKVSCKASGYNFNIYWINWVRQAPGQGLEWIGNIYPSSISTNYNEKFKTRATLTVDKSTSTVYMELSSLRSEDTAVYYCARSEGTYYGGRYEGDWFGYWGQGTLVTVSS
VL: DIQMTQSPSSLSASVGDRVTITCRASQDIRNYLNWYQQKPGKAPKLLIYFTSTLHSGVPSRFSGSGSGTDFTLTISSLQPEDFATYYCQQGNTLPWTFGGGTKVEIKR
notes: hIgG4, κ
By EC50 is commonly meant the concentration that produces a half-maximal response. Usually IC50 stands for the point on the concentration scale where inhibition reaches its midpoint. A high value points to weaker potency in that assay. In the case of B1, the EC50 in test [1] is 0.094 nM; in test [2], 0.181 nM; in test [3] it was 0.065 nM; in test [4], 0.143 nM; in test [6], 0.159 nM. In test [5], the binding result is listed as “no binding (tested: the binding signal was not detected)”. Moreover, the IC50 in test [7] was 5.28 nM.
